Measurements taken from paper PMC10247727, “Stabilization of pre-existing neurotensin receptor conformational states by β-arrestin-1 and the biased allosteric modulator ML314” (Nature Communications, 2023).

Biological target: T1, enNTS1ΔM4 (minimal methionine variant of the thermostabilized rat neurotensin receptor 1 variant enNTS1) (rat, N262^5.63R (stands in the printed letters) | K263^5.64R (stands in the printed …))
T1 construct: residues left before the receptor after HRV 3C cleavage (so in the source); enNTS1ΔM4: rat neurotensin receptor 1 thermostabilized by directed evolution (enNTS1), four of the ten methionines removed; linker, C-terminal Avi-tag and the rest of the HRV 3C site, as printed (the Avi-tag is named under tags too); In DDM micelles; 13CεH3-methionine labelled or unlabelled; also called …
T1 chain: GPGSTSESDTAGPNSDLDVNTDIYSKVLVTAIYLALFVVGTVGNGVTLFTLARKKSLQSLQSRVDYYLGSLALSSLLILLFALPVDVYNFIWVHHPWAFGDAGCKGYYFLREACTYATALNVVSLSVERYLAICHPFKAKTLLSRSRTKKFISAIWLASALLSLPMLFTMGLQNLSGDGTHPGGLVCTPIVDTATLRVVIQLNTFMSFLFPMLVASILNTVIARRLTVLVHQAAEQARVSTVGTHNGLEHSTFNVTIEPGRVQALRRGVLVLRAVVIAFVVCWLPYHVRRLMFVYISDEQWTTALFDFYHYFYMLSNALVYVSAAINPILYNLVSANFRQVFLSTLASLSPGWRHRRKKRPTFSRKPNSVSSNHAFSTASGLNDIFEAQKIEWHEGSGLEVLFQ
Test: NMR (1H-13C HMQC spectra); 66 μM [13CεH3-methionine]-enNTS1ΔM4 with 500 μM ML314 (no NT8-13), 130 μM PIP2 and 2.3x molar equivalents βArr1-3A, 298 K
Settings: both partners purified

B1: βArr1-3A (pre-activated cysteine-free human β-arrestin-1, I386A/V387A/F388A), tags removed (natural protein)
chain: GPSGDKGTRVFKKASPNGKLTVYLGKRDFVDHIDLVDPVDGVVLVDPEYLKERRVYVTLTVAFRYGREDLDVLGLTFRKDLFVANVQSFPPAPEDKKPLTRLQERLIKKLGEHAYPFTFEIPPNLPSSVTLQPGPEDTGKALGVDYEVKAFVAENLEEKIHKRNSVRLVIRKVQYAPERPGPQPTAETTRQFLMSDKPLHLEASLDKEIYYHGEPISVNVHVTNNTNKTVKKIKISVRQYADIVLFNTAQYKVPVAMEEADDTVAPSSTFSKVYTLTPFLANNREKRGLALDGKLKHEDTNLASSTLLREGANREILGIIVSYKVKVKLVVSRGGLLGDLASSDVAVELPFTLMHPKPKEEPPHREVPENETPVDTNLIELDTNDDDAAAEDFARQRLKGMKDDKEEEEDGTGSPQLNNR
notes: residues left after HRV 3C cleavage (so in the source); human β-arrestin-1, cysteine-free, 3A mutant; Used in the NMR experiments, unlabelled or [U-15N,13C,2H]-labelled; also called hβArr1-3A; βArr-3A; source: E. coli BL21(DE3), purified (Ni-NTA, HRV 3C cleavage, HiTrap Q, SEC); not shown: His6, N-terminal, cleaved; Protein C tag, N-terminal, cleaved
Question: Does B1 bind?
Answer: binds
